For four molecules, Kd results are on record in paper PMC8809517, “Cofactor-independent RNA editing by a synthetic S-type PPR protein”.

Changes are numbered by the printed parent chain.

One may read the Kd as the concentration at which binding is half-saturated. A higher Kd goes with weaker binding.

What all share (test): high-throughput RNA pulldown from lysate on Ni-NTA beads; HRP: 50 mM Tris pH 8, 150 mM NaCl, 1 mM beta-mercaptoethanol, 50 ug/ml BSA, 3 ug/ml yeast RNA, 0.5% heparin; ITC and FP: Tris pH 8, 200 mM KCl, 5% glycerol; MST: 50 mM Tris pH 8, 200 mM NaCl, 1 mM DTT, BSA, heparin, 0.05% Tween 20
What all share (settings): tags: N-terminal His-eGFP

The target in data set [1] is T1, GFP-9S library array, motif 4 ND N98E;D124K (synthetic construct, N98E;D124K).
T1 chain: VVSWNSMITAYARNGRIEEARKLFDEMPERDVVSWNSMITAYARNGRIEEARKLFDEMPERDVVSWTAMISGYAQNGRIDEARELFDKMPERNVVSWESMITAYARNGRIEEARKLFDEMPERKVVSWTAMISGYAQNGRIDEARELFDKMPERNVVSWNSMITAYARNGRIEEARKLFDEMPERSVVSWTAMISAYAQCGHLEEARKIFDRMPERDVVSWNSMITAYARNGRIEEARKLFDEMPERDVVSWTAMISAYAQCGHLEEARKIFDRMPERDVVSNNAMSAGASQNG

The target of data set [2] is T2, GFP-9S library array, motif 4 ND N98M;D124P (synthetic construct, N98M;D124P).
T2 chain: T1 chain with E98M, K124P

Data set [3] has as its target T3, GFP-9S library array, motif 4 ND N98L;D124W (synthetic construct, N98L;D124W).
T3 chain: T1 chain with E98L, K124W

Data set [4] addresses T4, GFP-9S library array, motif 4 ND N98C;D124W (synthetic construct, N98C;D124W).
T4 chain: T1 chain with E98C, K124W

Data set [5] has as its target T5, GFP-9S library array, motif 4 ND N98I;D124G (synthetic construct, N98I;D124G).
T5 chain: T1 chain with E98I, K124G

Regarding AUUAGACGUGA (ssRNA) [Cy5-rpoA-G], the Kd in data set [1] (label: 5' Cy5) is 155 nM; in data set [2] (label: 5' Cy5), 115 nM; in data set [3] (label: 5' Cy5) it was 99.9 nM; in data set [4] (label: 5' Cy5) it was 84.9 nM; in data set [5] (label: 5' Cy5) it was 72 nM.
On to AUUACACGUGA (ssRNA) [Cy5-rpoA], for which the Kd came out at 124 nM in data set [1] (label: 5' Cy5); 106 nM in data set [2] (label: 5' Cy5); 111 nM in data set [3] (label: 5' Cy5); 86.1 nM in data set [4] (label: 5' Cy5); 69.2 nM in data set [5] (label: 5' Cy5).
On to AUUAUACGUGA (ssRNA) [IR-rpoA-U], for which the Kd stood at 267 nM in data set [1] (label: 5' IRDye 800CW); 296 nM in data set [2] (label: 5' IRDye 800CW); 248 nM in data set [3] (label: 5' IRDye 800CW); 234 nM in data set [4] (label: 5' IRDye 800CW); 26.6 nM in data set [5] (label: 5' IRDye 800CW).
As to AUUAAACGUGA (ssRNA) [IR-rpoA-A], the equilibrium dissociation constant (Kd) in data set [1] (label: 5' IRDye 800CW) turned out to be 312 nM; in data set [2] (label: 5' IRDye 800CW), 264 nM; in data set [3] (label: 5' IRDye 800CW) it was 247 nM; in data set [4] (label: 5' IRDye 800CW) it was 171 nM; in data set [5] (label: 5' IRDye 800CW) it was 40.6 nM.
